Target: Bovine submaxillary mucin (bovine)
Test: SPR, BSM immobilised on CM5 chip

## CC49.scFv
  Kd: 30 nM

— patent US20170218081A1
